# From the supplement of paper PMC12764529
# ± gives the half width of the 95% confidence interval.
# Assay: folding stability dG unfold (combined trypsin and chymotrypsin); higher = more stable
# Method in brief: (§1)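 Digests were run with trypsin and chymotrypsin at 11 concentrations in threefold dilutions, plus a no-protease condition, on designed mini-proteins in a PA-tagged cDNA display construct. The mini-proteins were under 80 residues, had no cysteine, and were kept only when AlphaFold2 dimer inter-PAE was above 15. After sequencing, Bayesian fitting of the counts gave K50, from which unfolding free energy was derived against a sequence-predicted unfolded-state K50 and a shared folded-state K50, per protease or combined.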
row,Sequence,folding stability dG unfold
1,SAGGSAGGSPNTVPIPIRVEWYDPKDGEPKDEHPFNINFKTEEEAEDIIDNIAPDHPGMKIEISAGGSAGGS [r12_1043_TrROS],0.0133 ± 0.14 kcal/mol
2,PFRVMVDLERDPEDGWYKVTIMVQAKDGRPITPELIENAAREIFKQGFPIKKIKLEPYPNGYVHFKIEIPLS [r1_408_TrROS],2.65 ± 0.064 kcal/mol
3,SAGGMTLTLTIKVKTTTVEKDAATGKETVRTETRTLTVTIEAESEEEALAALKKLLEELGFEIVEVTSAGGS [r16_459_TrROS_Hall],4.89 ± 0.28 kcal/mol
4,SAGGSAGGSMKYTLLSTRKNPDGTELRLIEVSEDPEKAKEYLESQGAVEIEFKKNIMTVTFKSSAGGSAGGS [r20_222_JUSTAS],-0.214 ± 0.17 kcal/mol
5,SAGGSAGGSAGGSEKPPIKLKIKVYDPETNELVSEVEVELEPGQSLEELLKKFDVVEIESAGGSAGGSAGGS [r4_187_TrROS_Hall],2.66 ± 0.12 kcal/mol
6,SAGGSAGGSAGGELKAKFETFPSPYGKVILAEAEFEEPNLLAAIVIDEDGVPHLLVVSPDSAGGSAGGSAGG [r7_187_TrMRF],0.952 ± 0.12 kcal/mol
7,SAGGEEVVVERPPAPPPITVTIEYDEETNTVTVTVTLPNGETLTITVEAPSLEEAEAAARELLEALSSAGGS [r16_319_TrROS_Hall],2.93 ± 0.31 kcal/mol
8,SAGGITIELRNPNGEPVEVHLKRDPDGTLELSVHMRGPEGRHYMVTMTIKVKNNGIEIDKFDNWYPLPSAGG [r13_451_TrROS],3.79 ± 0.11 kcal/mol
9,SAGGSAGGEIVITLPNVKSKEEAKKAAEKLIEELKKKGIKDKTIKVTVIDEKTGKEYTFTIKLKSAGGSAGG [r6_237_TrROS_Hall],4.14 ± 0.3 kcal/mol
10,SAGGSAGGPVVISVPALVKLAKELGLKLVFFPETKTVILEHPDSFLIATIDSKGNVSIAPALPESAGGSAGG [r6_155_TrMRF],2.64 ± 0.091 kcal/mol
11,SAGGSAMKKLTIELPDPDITPEEAEKRAREIAEKIAEGNYKVEEIKVEPVDPEKNVYRGTVIIKELSAGGSA [r15_96_JUSTAS],0.507 ± 0.34 kcal/mol
12,SAGGSAGGSAGMWIDEDTIRRLAALLGYPGKVEVVRLEDGSLLVVVYGDTEPGVLLFPLDSAGGSAGGSAGG [r11_410_TrMRF],2.59 ± 0.048 kcal/mol
13,SAGGSAGGSAGPNIYVSIKWKHNNGPVTHQIPIPPNDPPEILDEMSKQPGFKVTDIEVMPSAGGSAGGSAGG [r11_692_TrROS],-0.213 ± 0.25 kcal/mol
14,SAGSKELVIVEKDEPVEGETLDYTNGKKKKFPKKVPVVKEIVLPKNSPEAEKIAKELSPPNVKVEILAKSAG [r5_468_JUSTAS],-0.617 ± 0.32 kcal/mol
15,SAGKYKIKNVQFSNNSITIEIYDDGKPKAEIPIPPNFPNMKVDAEIDEDGSIKIKFRFNGQPQEIEIPPSAG [r5_533_TrROS],1.25 ± 0.31 kcal/mol
16,SAGFKIDDVETEKDPDGEKEITFRYVDPGDGRPWMLNLRINPNGKLTEENPVPFDDFPPGSYWTIRIKSAGG [r19_393_TrROS],0.402 ± 0.18 kcal/mol
17,WRIRVEIEMYNPDGDPMEMEIQIPVDKLQELRQEGEPFTKEELVDEIVEIIRDMMPEHGMPIEIKIVEIVPS [r1_174_TrROS],1.76 ± 0.2 kcal/mol
18,SMTRVKVELLITNPATGETFYYDIEATEEEAEEIAKELEESYPEKNATVTIKKKEVIPVEPPVVLPEGILSA [r9_14_JUSTAS],0.815 ± 0.069 kcal/mol
19,SAGGSAGGGSMSMPVTTKLVEEYTFPGTKEEAEEFLKKKLPPNYQVEITETPDSIKVKVYKVEGSAGGSAGG [r6_953_JUSTAS],2.38 ± 0.057 kcal/mol
20,SAGMNTITFEYKTKDHYVKIDVQVYPPNEGYIRISIEIYNKDGEPKKEVKITIPAPPGDPAVRDFLDQFSAG [r5_964_TrROS],2.73 ± 0.35 kcal/mol
21,SAGGSAGGSDDSPEDAQKQQAKPEIKIKLHIRFPDGKEYDLDEPFEFPINGQPMRISSIDIVYSAGGSAGGS [r12_43_TrROS],0.823 ± 0.11 kcal/mol

row,Sequence,folding stability dG unfold
1,SAGGSAGGSAGGMTPEEIEAALQKAREENSEDEEFTVTVTDPETGEVLTIRIDPNSVTIESAGGSAGGSAGG [r7_45_JUSTAS],0.719 ± 0.08 kcal/mol
2,SAGGSMTVETSISRLPDGTYTVTVTFTLKNPDGSPVGTITIPVTMSPEVLAKTPLETVVAEAVAAASAGGSA [r2_421_JUSTAS],3.09 ± 0.077 kcal/mol
3,SAGGSAGGMVVGILTITDPATGSSETLVIPMPSEEEAVERAKELAEELEAKKGKIVKVEIRPRPSAGGSAGG [r6_787_JUSTAS],1.32 ± 0.19 kcal/mol
4,SAGGSAGGSTIRIRVKTREEAERLAKLIPGARITYDEETKEFYLEIRLPPAPPPSLEELKAALSAGGSAGGS [r20_191_TrROS_Hall],2.84 ± 0.058 kcal/mol
5,SAGGSAGGMELISEKPAKVKYGDKEAEVWVKLVKIPNTDEVLVTLYFPGSGKPRIIPAKDVEIESAGGSAGG [r6_263_TrMRF],0.836 ± 0.19 kcal/mol
6,SAGGSMGSKKVGEIELEVEIGDEKVKVKVTLYETESPDDSVSLTLDVDVEHPNGKKISKELFEKLFSAGGSA [r2_363_TrMRF],1.84 ± 0.15 kcal/mol
7,SAGGYVRIRIELQEKRKPPDGKQQQRKKKITITVRLPPNEEMRMPDGKDIDPGKSAEELADYALDNLSAGGS [r16_440_TrROS],1.92 ± 0.15 kcal/mol
8,SAGGSAGGMPVSVEIELTVPTSPDETPEEALERIREELAPLGVEEVTATPLPDGTVRFRITVPRSAGGSAGG [r6_882_JUSTAS],0.961 ± 0.13 kcal/mol
9,SAGGSAGGSLTVSFPGITLTLETVPGTGKIIATVTFPGGEVRTISSDVPLSELPPVVREALELLSAGGSAGG [r6_749_JUSTAS],2.74 ± 0.072 kcal/mol
10,SAGGSAGGSAGMPLYIIEVEKEDGSKITITIPENMTEEEIKKIAEELGIKKVEIIKKEDLSAGGSAGGSAGG [r11_490_TrROS_Hall],1.84 ± 0.087 kcal/mol
11,SAGGSAGGSAGGSVTSTSSVGSSPGSTTTLTYPEKPLYVTVYTELKDDPTVVTTETFPLLSAGGSAGGSAGG [r7_509_JUSTAS],1.56 ± 0.39 kcal/mol
12,SAGGSAGGSSAPPGEVRTEAVSLTVRSTVPITYPNSPTTTLSLTTTLTVTLTREVSPVRPEVESAGGSAGGS [r20_14_JUSTAS],3.34 ± 0.22 kcal/mol
13,SAGGSAGGSAMYKVTIEIPETGKIYTFTHPGTAEEALAAALPEIGVSKEKIKKITVTPTEESAGGSAGGSAG [r3_79_JUSTAS],0.994 ± 0.11 kcal/mol
14,SAGGMAIKDVRVEGGVLYVYRGDKLVAKIEPGAAQPPVLVRFPDGTVVAVPRSVALALNPETLEFFDVSAGG [r13_802_TrMRF],1.43 ± 0.043 kcal/mol
15,SAGGSAGGSAGMEISTKTLPGDKYELTITLPDSKGTPITVTITFTSEEEAKKKLEEIIKKSAGGSAGGSAGG [r11_819_JUSTAS],2.27 ± 0.084 kcal/mol
16,SAGGSAMTIEIVVPTLEAIEKLAEETGAEVVEVRFFEEEGLVVVRIKVPESKEELLEKIREALGLESAGGSA [r15_118_TrROS_Hall],2.11 ± 0.1 kcal/mol
17,SAGGSAGGMVTITEVSYDPKIGKTFTLVTVKDPEGKETLVEVPLEEIEKLIEEVPEGRPVEIAPSAGGSAGG [r6_113_JUSTAS],-0.199 ± 0.19 kcal/mol
18,SAGGSAGGSAGGTLEAIKELAKDMPPGDKNIPIKIPDGKPYTIDVEMDPDGKMEIDIEPSAGGSAGGSAGGS [r10_1017_TrROS],0.466 ± 0.2 kcal/mol
19,SAGGMKLEILEKSENRIIIRTDEGKIYIAPEIVKKLKEKGGNIKPTLDEIIEWLEKNNIPAEDAVFGDSAGG [r13_610_TrMRF],0.915 ± 0.11 kcal/mol
20,SAGGKFDIMVKVEPPDGKEEELPIKFDSPEEIIEEARAIAEQHGPGDKLKVEIYYPGTGRPIEFEIPSAGGS [r8_107_TrROS],0.336 ± 0.34 kcal/mol
21,SAGMPEIVKVKVKIKVNIPVFDKNGKLIGLIPKEYEFEIEAPYEEIKNIIESLPENAEVVEILEIENESAGG [r19_114_TrMRF],3.29 ± 0.89 kcal/mol

# Assay: folding stability dG unfold from trypsin proteolysis; higher = more stable
# Method in brief: as §1
row,Sequence,folding stability dG unfold
1,SAGGSAGGSPNTVPIPIRVEWYDPKDGEPKDEHPFNINFKTEEEAEDIIDNIAPDHPGMKIEISAGGSAGGS [r12_1043_TrROS],0.233 ± 0.096 kcal/mol
2,PFRVMVDLERDPEDGWYKVTIMVQAKDGRPITPELIENAAREIFKQGFPIKKIKLEPYPNGYVHFKIEIPLS [r1_408_TrROS],2.15 ± 0.035 kcal/mol
3,SAGGMTLTLTIKVKTTTVEKDAATGKETVRTETRTLTVTIEAESEEEALAALKKLLEELGFEIVEVTSAGGS [r16_459_TrROS_Hall],3.99 ± 0.27 kcal/mol
4,SAGGSAGGSMKYTLLSTRKNPDGTELRLIEVSEDPEKAKEYLESQGAVEIEFKKNIMTVTFKSSAGGSAGGS [r20_222_JUSTAS],-0.216 ± 0.22 kcal/mol
5,SAGGSAGGSAGGSEKPPIKLKIKVYDPETNELVSEVEVELEPGQSLEELLKKFDVVEIESAGGSAGGSAGGS [r4_187_TrROS_Hall],1.71 ± 0.1 kcal/mol
6,SAGGSAGGSAGGELKAKFETFPSPYGKVILAEAEFEEPNLLAAIVIDEDGVPHLLVVSPDSAGGSAGGSAGG [r7_187_TrMRF],1.13 ± 0.064 kcal/mol
7,SAGGEEVVVERPPAPPPITVTIEYDEETNTVTVTVTLPNGETLTITVEAPSLEEAEAAARELLEALSSAGGS [r16_319_TrROS_Hall],2.66 ± 0.28 kcal/mol
8,SAGGITIELRNPNGEPVEVHLKRDPDGTLELSVHMRGPEGRHYMVTMTIKVKNNGIEIDKFDNWYPLPSAGG [r13_451_TrROS],3.11 ± 0.092 kcal/mol
9,SAGGSAGGEIVITLPNVKSKEEAKKAAEKLIEELKKKGIKDKTIKVTVIDEKTGKEYTFTIKLKSAGGSAGG [r6_237_TrROS_Hall],3.81 ± 0.15 kcal/mol
10,SAGGSAGGPVVISVPALVKLAKELGLKLVFFPETKTVILEHPDSFLIATIDSKGNVSIAPALPESAGGSAGG [r6_155_TrMRF],2.69 ± 0.09 kcal/mol
11,SAGGSAMKKLTIELPDPDITPEEAEKRAREIAEKIAEGNYKVEEIKVEPVDPEKNVYRGTVIIKELSAGGSA [r15_96_JUSTAS],0.64 ± 0.13 kcal/mol
12,SAGGSAGGSAGMWIDEDTIRRLAALLGYPGKVEVVRLEDGSLLVVVYGDTEPGVLLFPLDSAGGSAGGSAGG [r11_410_TrMRF],3.02 ± 0.079 kcal/mol
13,SAGGSAGGSAGPNIYVSIKWKHNNGPVTHQIPIPPNDPPEILDEMSKQPGFKVTDIEVMPSAGGSAGGSAGG [r11_692_TrROS],-0.836 ± 0.35 kcal/mol
14,SAGSKELVIVEKDEPVEGETLDYTNGKKKKFPKKVPVVKEIVLPKNSPEAEKIAKELSPPNVKVEILAKSAG [r5_468_JUSTAS],-1.08 ± 0.81 kcal/mol
15,SAGKYKIKNVQFSNNSITIEIYDDGKPKAEIPIPPNFPNMKVDAEIDEDGSIKIKFRFNGQPQEIEIPPSAG [r5_533_TrROS],0.819 ± 0.057 kcal/mol
16,SAGFKIDDVETEKDPDGEKEITFRYVDPGDGRPWMLNLRINPNGKLTEENPVPFDDFPPGSYWTIRIKSAGG [r19_393_TrROS],0.636 ± 0.14 kcal/mol
17,WRIRVEIEMYNPDGDPMEMEIQIPVDKLQELRQEGEPFTKEELVDEIVEIIRDMMPEHGMPIEIKIVEIVPS [r1_174_TrROS],1.64 ± 0.051 kcal/mol
18,SMTRVKVELLITNPATGETFYYDIEATEEEAEEIAKELEESYPEKNATVTIKKKEVIPVEPPVVLPEGILSA [r9_14_JUSTAS],0.418 ± 0.036 kcal/mol
19,SAGGSAGGGSMSMPVTTKLVEEYTFPGTKEEAEEFLKKKLPPNYQVEITETPDSIKVKVYKVEGSAGGSAGG [r6_953_JUSTAS],2.31 ± 0.053 kcal/mol
20,SAGMNTITFEYKTKDHYVKIDVQVYPPNEGYIRISIEIYNKDGEPKKEVKITIPAPPGDPAVRDFLDQFSAG [r5_964_TrROS],2.77 ± 0.32 kcal/mol
21,SAGGSAGGSDDSPEDAQKQQAKPEIKIKLHIRFPDGKEYDLDEPFEFPINGQPMRISSIDIVYSAGGSAGGS [r12_43_TrROS],0.419 ± 0.037 kcal/mol
